In publication PMC4186817, “Expression, Purification, and Structural Insights for the Human Uric Acid Transporter, GLUT9, Using the Xenopus laevis Oocytes System” (PLoS ONE, 2014):

Biological target: the molecule itself
Assay: SDS-PAGE with silver stain and Western blot (anti-HA); eluate of the cobalt IMAC column (HRV 3C elution) from DDM-solubilised oocyte membranes, 8% SDS polyacrylamide gel

B1: human GLUT9b (SLC2A9b), recombinant (natural protein, UniProt Q9NRM0-2 1-511, looked up)
chain: MKLSKKDRGEDEESDSAKKKLDWSCSLLVASLAGAFGSSFLYGYNLSVVNAPTPYIKAFYNESWERRHGRPIDPDTLTLLWSVTVSIFAIGGLVGTLIVKMIGKVLGRKHTLLANNGFAISAALLMACSLQAGAFEMLIVGRFIMGIDGGVALSVLPMYLSEISPKEIRGSLGQVTAIFICIGVFTGQLLGLPELLGKESTWPYLFGVIVVPAVVQLLSLPFLPDSPRYLLLEKHNEARAVKAFQTFLGKADVSQEVEEVLAESRVQRSIRLVSVLELLRAPYVRWQVVTVIVTMACYQLCGLNAIWFYTNSIFGKAGIPPAKIPYVTLSTGGIETLAAVFSGLVIEHLGRRPLLIGGFGLMGLFFGTLTITLTLQDHAPWVPYLSIVGILAIIASFCSGPGGIPFILTGEFFQQSQRPAAFIIAGTVNWLSNFAVGLLFPFIQKSLDTYCFLVFATICITGAIYLYFVLPETKNRTYAEISQAFSKRNKAYPPEEKIDSAVTDGKINGRP
modifications: N-glycosylated (shift with PNGase; site not given)
notes: human GLUT9 isoform b (SLC2A9b), cDNA from Origene, amplified with primers from the start codon (ATGAAGCTCAGTAAAAAGGACCGAG) to the stop codon; differs from GLUT9a only in the N-terminal residues; Tag order from the N-terminus: 10xHis, FLAG, HRV 3C (PreScission) site, HA, then GLUT9b; The protein was eluted from the cobalt resin by HRV 3C cleavage, so only the HA tag stays on it (it is …)
Question: Does B1 bind?
Answer: Result: binds
